{"source": "paper PMC6412888", "about": "“Improving the Performance of Horseradish Peroxidase by Site-Directed Mutagenesis” (International Journal of Molecular Sciences, 2019)", "molecules": {"B1": {"name": "Benchmark rHRP (HRP variant C1A) (Armoracia rusticana) (protein)", "chain": "QLTPTFYDNSCPNVSNIVRDTIVNELRSDPRIAASILRLHFHDCFVNGCDASILLDNTTSFRTEKDAFGNANSARGFPVIDRMKAAVESACPRTVSCADLLTIAAQQSVTLAGGPSWRVPLGRRDSLQAFLDLANANLPAPFFTLPQLKDSFRNVGLNRSSDLVALSGGHTFGKNQCRFIMDRLYNFSNTGLPDPTLNTTYLQTLRGLCPLNGNLSALVDFDLRTPTIFDNKYYVNLEEQKGLIQSDQELFSSPNATDTIPLVRSFANSTQTFFNAFVEAMDRMGNITPLTGTQGQIRLNCRVVNSNS", "notes": "mature HRP C1A without plant leader; E. coli BL21(DE3) periplasm, non-glycosylated, IMAC purified; hemin and CaCl2 added"}}, "key": {"[1]": {"system": "T1, CCn1c(=NN=c2sc3cc(S(=O)(=O)O)ccc3n2CC)sc2cc(S(=O)(=O)O)ccc21", "T1 construct": "mature HRP C1A without plant leader; E. coli BL21(DE3) periplasm, non-glycosylated, IMAC purified; hemin and CaCl2 added", "experiment": "purified protein", "format": "biochemical, Armoracia rusticana"}, "[2]": {"substrate": "CCn1c(=NN=c2sc3cc(S(=O)(=O)O)ccc3n2CC)sc2cc(S(=O)(=O)O)ccc21", "experiment": "purified protein", "format": "biochemical, Armoracia rusticana", "settings": "1 mM H2O2, 50 mM KH2PO4 pH 5, 30 °C"}, "[3]": {"settings": "1 mM H2O2, 50 mM KH2PO4 pH 5, 30 °C"}, "[4]": {"settings": "1 mM H2O2, 50 mM BisTris/HCl pH 7, 7% glycerol, 100 mM NaCl, 30 °C"}}, "data": [{"molecule": "Benchmark rHRP (HRP variant C1A) (Armoracia rusticana; N285D/N298D/N43D/N87S)", "values": [{"measurement": "Km", "setting": "[1]; [3]", "result": "0.45 ± 0.12", "unit": "mM"}, {"measurement": "Vmax", "setting": "[1]; [3]", "result": 1080, "unit": "µM/min"}, {"measurement": "kcat", "setting": "[1]; [3]", "result": "17.4 ± 1.01", "unit": "s⁻¹"}, {"measurement": "kcat/Km", "setting": "[1]; [3]", "result": "39100 ± 10500", "unit": "M⁻¹ s⁻¹"}]}, {"molecule": "Benchmark rHRP (HRP variant C1A) (Armoracia rusticana; N298D/N87S)", "values": [{"measurement": "Km", "setting": "[1]; [4]", "result": "4.18 ± 3.55", "unit": "mM"}, {"measurement": "Vmax", "setting": "[1]; [4]", "result": 60, "unit": "µM/min"}, {"measurement": "kcat", "setting": "[1]; [4]", "result": "1.5 ± 0.58", "unit": "s⁻¹"}, {"measurement": "kcat/Km", "setting": "[1]; [4]", "result": "360 ± 340", "unit": "M⁻¹ s⁻¹"}]}, {"molecule": "Benchmark rHRP (HRP variant C1A) (Armoracia rusticana; N285D)", "values": [{"measurement": "Km", "setting": "[1]; [4]", "result": "4.37 ± 0.86", "unit": "mM"}, {"measurement": "Vmax", "setting": "[1]; [4]", "result": 53.4, "unit": "µM/min"}, {"measurement": "kcat", "setting": "[1]; [4]", "result": "1.1 ± 0.12", "unit": "s⁻¹"}, {"measurement": "kcat/Km", "setting": "[1]; [4]", "result": "240 ± 50", "unit": "M⁻¹ s⁻¹"}]}, {"molecule": "Benchmark rHRP (HRP variant C1A) (Armoracia rusticana; N285D/N298D/N87S)", "values": [{"measurement": "Km", "setting": "[1]; [4]", "result": "9.52 ± 6.89", "unit": "mM"}, {"measurement": "Vmax", "setting": "[1]; [4]", "result": 240, "unit": "µM/min"}, {"measurement": "kcat", "setting": "[1]; [4]", "result": "4.81 ± 2.37", "unit": "s⁻¹"}, {"measurement": "kcat/Km", "setting": "[1]; [4]", "result": "510 ± 440", "unit": "M⁻¹ s⁻¹"}]}, {"molecule": "Benchmark rHRP (HRP variant C1A) (Armoracia rusticana; N43D)", "values": [{"measurement": "Km", "setting": "[1]; [4]", "result": "3.29 ± 0.33", "unit": "mM"}, {"measurement": "Vmax", "setting": "[1]; [4]", "result": 52.8, "unit": "µM/min"}, {"measurement": "kcat", "setting": "[1]; [4]", "result": "1.04 ± 0.05", "unit": "s⁻¹"}, {"measurement": "kcat/Km", "setting": "[1]; [4]", "result": "320 ± 40", "unit": "M⁻¹ s⁻¹"}]}, {"molecule": "Benchmark rHRP (HRP variant C1A) (Armoracia rusticana; N87S)", "values": [{"measurement": "Km", "setting": "[1]; [4]", "result": "3.22 ± 0.59", "unit": "mM"}, {"measurement": "Vmax", "setting": "[1]; [4]", "result": 162, "unit": "µM/min"}, {"measurement": "kcat", "setting": "[1]; [4]", "result": "2.1 ± 0.19", "unit": "s⁻¹"}, {"measurement": "kcat/Km", "setting": "[1]; [4]", "result": "640 ± 130", "unit": "M⁻¹ s⁻¹"}]}, {"molecule": "Benchmark rHRP (HRP variant C1A) (Armoracia rusticana; N298D)", "values": [{"measurement": "Km", "setting": "[1]; [4]", "result": "7.85 ± 4.98", "unit": "mM"}, {"measurement": "Vmax", "setting": "[1]; [4]", "result": 144, "unit": "µM/min"}, {"measurement": "kcat", "setting": "[1]; [4]", "result": "3 ± 1.25", "unit": "s⁻¹"}, {"measurement": "kcat/Km", "setting": "[1]; [4]", "result": "380 ± 290", "unit": "M⁻¹ s⁻¹"}]}, {"molecule": "B1", "values": [{"measurement": "Km", "setting": "[2]", "result": "0.44 ± 0.10", "unit": "mM"}, {"measurement": "Vmax", "setting": "[2]", "result": 120, "unit": "µM/min"}, {"measurement": "kcat", "setting": "[2]", "result": "2.24 ± 0.11", "unit": "s⁻¹"}, {"measurement": "kcat/Km", "setting": "[2]", "result": "5070 ± 1160", "unit": "M⁻¹ s⁻¹"}]}]}
